Like-named read-outs stand apart in the source and are kept apart here.
Legend:
Experiment in all cases: SPR
L7Ae [1] = biological target: T1, L7Ae (Archaeoglobus fulgidus, UniProt O29494 1-119)
L7Ae-K (L7-K) [2] = biological target: T2, L7Ae-K (L7-K) (Archaeoglobus fulgidus, UniProt O29494 1-119, K37A)
L7Ae-K (L7-K) [3] = biological target: T2, L7Ae-K (L7-K); remark: listed apart in the source
L7Ae [4] = biological target: T1, L7Ae; remark: listed apart in the source

T2 sequence (O29494 whole entry K37A): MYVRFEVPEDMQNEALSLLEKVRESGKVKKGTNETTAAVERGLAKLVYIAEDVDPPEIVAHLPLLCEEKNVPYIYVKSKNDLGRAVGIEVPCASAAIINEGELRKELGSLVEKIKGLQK
T1 sequence (O29494 whole entry): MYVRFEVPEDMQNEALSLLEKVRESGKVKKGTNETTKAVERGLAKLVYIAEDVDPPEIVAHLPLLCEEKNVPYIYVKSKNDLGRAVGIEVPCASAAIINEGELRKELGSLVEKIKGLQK

| Binder | Kd (L7Ae [1]) [nM] | Kd (L7Ae-K (L7-K) [2]) [nM] | Kd (L7Ae-K (L7-K) [3]) [nM] | Kd (L7Ae [4]) [nM] |
| --- | --- | --- | --- | --- |
| GGAUCUGGGGCGUGAUCCGAAAGGUGACCCGGAUCC (structured_RNA) [K-turn] | 1.6 | 15 |  |  |
| GGAUCUGGGGUCUGAACGGUGAUGACCCGGAUCC (structured_RNA) [K-loop] |  |  | 26 | 2.2 |
